From publication PMC12474247 come the findings set out here.

For this assay, the target named is small hepatitis delta antigen with C-terminal His6-tag (SHDAg-His6), native preparation (hepatitis D virus genotype 1). Description: SEC.

Several values for one entry are separate records, joined by “and”; a condition that tells them apart may be missing. Equal entries are not always repeated.

In the case of “small hepatitis delta antigen with C-terminal His6-tag (SHDAg-His6), native preparation (natural protein)”, the stoichiometry N is 4 and 8.
